The text below walks through data of patent publication US10087225B2, “Formulation of MK2 inhibitor peptides” (MOERAE MATRIX, INC., priority 2015, dated 2018).

Common to all, as to test: Kinase Profiling Assay
Holding throughout (format): biochemical

Experiment [1] concerns the target DAPK1(h) (Homo sapiens, UniProt P53355).
In experiment [2] the target is FGFR1(V561M)(h) (Homo sapiens, UniProt P11362, V561M).
Experiment [3] concerns the target MRCKα(h) (Homo sapiens, UniProt Q5VT25).
The target in experiment [4] is T1, MuSK(h) (Homo sapiens, UniProt O15146).
T1 sequence (O15146 24-869): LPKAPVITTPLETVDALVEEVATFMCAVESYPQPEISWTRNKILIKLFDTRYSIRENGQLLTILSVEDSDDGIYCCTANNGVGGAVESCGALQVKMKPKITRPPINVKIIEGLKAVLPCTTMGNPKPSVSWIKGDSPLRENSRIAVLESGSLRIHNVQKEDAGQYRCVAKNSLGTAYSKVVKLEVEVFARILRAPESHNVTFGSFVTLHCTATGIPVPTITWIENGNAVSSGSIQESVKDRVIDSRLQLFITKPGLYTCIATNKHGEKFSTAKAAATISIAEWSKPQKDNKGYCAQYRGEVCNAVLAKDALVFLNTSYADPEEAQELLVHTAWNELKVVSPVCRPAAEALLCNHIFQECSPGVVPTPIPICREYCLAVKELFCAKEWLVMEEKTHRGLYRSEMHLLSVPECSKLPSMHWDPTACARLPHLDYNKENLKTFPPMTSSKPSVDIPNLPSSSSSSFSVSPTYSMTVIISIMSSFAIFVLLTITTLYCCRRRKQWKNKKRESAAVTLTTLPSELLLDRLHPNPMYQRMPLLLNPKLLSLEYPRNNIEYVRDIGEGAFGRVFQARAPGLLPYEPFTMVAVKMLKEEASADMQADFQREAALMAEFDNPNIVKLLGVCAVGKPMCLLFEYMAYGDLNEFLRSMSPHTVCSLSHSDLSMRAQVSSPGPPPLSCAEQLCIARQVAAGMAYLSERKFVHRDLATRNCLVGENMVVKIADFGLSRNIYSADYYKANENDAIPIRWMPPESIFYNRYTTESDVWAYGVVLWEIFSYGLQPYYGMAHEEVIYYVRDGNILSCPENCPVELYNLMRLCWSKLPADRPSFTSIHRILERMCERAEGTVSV

Experiment [5] has as its target CaMKIIδ(h) (Homo sapiens, UniProt Q13557). The following applies: 100 μM.
The target in experiment [6] is Flt3(h) (Homo sapiens, UniProt P36888). The following applies: 100 μM.
Experiment [7] concerns the target GSK3β(h) (Homo sapiens, UniProt P49841). The following applies: 100 μM.
The target of experiment [8] is IR(h) (Homo sapiens, UniProt P06213). The following applies: 100 μM.
Experiment [9] addresses NEK6(h) (Homo sapiens, UniProt Q9HC98). The following applies: 100 μM.
Experiment [10] deals with Pim-1(h) (Homo sapiens, UniProt P11309). The following applies: 100 μM.
Pim-1(h), sequence (P11309 whole entry): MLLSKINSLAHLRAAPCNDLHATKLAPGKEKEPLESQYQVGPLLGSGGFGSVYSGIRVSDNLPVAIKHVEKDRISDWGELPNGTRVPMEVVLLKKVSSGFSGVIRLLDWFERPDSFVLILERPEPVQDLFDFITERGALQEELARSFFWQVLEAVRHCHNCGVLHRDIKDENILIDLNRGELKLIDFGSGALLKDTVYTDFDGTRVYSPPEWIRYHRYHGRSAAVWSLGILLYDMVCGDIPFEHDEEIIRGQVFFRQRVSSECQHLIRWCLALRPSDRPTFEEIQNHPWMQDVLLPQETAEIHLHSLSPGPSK
The target of experiment [11] is T2, PKCϵ(h) (Homo sapiens, UniProt Q02156).
T2 sequence (Q02156 1-737): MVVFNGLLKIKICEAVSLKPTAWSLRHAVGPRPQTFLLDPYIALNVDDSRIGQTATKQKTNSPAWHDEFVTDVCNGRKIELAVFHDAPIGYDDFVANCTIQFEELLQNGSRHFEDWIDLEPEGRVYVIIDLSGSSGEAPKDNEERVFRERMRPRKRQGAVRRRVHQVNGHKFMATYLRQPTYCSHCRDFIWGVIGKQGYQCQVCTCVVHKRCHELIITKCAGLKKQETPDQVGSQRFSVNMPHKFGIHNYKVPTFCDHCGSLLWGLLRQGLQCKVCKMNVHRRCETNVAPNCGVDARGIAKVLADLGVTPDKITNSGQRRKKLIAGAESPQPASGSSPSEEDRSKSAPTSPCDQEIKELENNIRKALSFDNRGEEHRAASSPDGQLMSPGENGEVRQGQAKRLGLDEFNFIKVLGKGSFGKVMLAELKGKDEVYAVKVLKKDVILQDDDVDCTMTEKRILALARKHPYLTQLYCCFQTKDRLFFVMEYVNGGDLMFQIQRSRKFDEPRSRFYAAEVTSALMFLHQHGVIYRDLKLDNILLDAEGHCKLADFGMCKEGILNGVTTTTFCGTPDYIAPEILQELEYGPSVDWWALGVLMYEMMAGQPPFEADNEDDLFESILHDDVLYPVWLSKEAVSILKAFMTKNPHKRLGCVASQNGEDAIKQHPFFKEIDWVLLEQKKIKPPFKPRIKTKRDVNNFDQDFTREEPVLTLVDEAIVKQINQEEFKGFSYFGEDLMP
The following applies: 100 μM.

Experiment [12] has as its target T3, TBK1(h) (Homo sapiens, UniProt Q9UHD2).
T3 sequence (Q9UHD2 1-729): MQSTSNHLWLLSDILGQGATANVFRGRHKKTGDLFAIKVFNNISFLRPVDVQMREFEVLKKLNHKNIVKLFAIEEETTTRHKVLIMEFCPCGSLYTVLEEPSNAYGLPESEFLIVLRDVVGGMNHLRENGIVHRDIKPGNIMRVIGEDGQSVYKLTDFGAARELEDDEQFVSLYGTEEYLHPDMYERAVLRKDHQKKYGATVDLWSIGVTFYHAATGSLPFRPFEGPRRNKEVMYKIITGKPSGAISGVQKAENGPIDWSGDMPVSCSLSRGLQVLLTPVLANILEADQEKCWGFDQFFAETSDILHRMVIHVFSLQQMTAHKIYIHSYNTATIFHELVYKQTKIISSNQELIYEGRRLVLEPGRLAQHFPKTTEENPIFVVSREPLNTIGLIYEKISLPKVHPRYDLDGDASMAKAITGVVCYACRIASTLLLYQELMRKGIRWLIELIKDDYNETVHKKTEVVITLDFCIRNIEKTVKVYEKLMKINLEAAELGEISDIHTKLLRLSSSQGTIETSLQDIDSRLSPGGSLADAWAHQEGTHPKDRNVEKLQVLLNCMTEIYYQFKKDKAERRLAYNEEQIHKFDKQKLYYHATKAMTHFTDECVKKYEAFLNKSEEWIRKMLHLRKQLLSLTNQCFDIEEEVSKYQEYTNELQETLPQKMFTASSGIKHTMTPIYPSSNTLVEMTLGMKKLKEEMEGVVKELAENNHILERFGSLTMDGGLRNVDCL
The following applies: 100 μM.

MRCKα(h), sequence (Q5VT25 whole entry): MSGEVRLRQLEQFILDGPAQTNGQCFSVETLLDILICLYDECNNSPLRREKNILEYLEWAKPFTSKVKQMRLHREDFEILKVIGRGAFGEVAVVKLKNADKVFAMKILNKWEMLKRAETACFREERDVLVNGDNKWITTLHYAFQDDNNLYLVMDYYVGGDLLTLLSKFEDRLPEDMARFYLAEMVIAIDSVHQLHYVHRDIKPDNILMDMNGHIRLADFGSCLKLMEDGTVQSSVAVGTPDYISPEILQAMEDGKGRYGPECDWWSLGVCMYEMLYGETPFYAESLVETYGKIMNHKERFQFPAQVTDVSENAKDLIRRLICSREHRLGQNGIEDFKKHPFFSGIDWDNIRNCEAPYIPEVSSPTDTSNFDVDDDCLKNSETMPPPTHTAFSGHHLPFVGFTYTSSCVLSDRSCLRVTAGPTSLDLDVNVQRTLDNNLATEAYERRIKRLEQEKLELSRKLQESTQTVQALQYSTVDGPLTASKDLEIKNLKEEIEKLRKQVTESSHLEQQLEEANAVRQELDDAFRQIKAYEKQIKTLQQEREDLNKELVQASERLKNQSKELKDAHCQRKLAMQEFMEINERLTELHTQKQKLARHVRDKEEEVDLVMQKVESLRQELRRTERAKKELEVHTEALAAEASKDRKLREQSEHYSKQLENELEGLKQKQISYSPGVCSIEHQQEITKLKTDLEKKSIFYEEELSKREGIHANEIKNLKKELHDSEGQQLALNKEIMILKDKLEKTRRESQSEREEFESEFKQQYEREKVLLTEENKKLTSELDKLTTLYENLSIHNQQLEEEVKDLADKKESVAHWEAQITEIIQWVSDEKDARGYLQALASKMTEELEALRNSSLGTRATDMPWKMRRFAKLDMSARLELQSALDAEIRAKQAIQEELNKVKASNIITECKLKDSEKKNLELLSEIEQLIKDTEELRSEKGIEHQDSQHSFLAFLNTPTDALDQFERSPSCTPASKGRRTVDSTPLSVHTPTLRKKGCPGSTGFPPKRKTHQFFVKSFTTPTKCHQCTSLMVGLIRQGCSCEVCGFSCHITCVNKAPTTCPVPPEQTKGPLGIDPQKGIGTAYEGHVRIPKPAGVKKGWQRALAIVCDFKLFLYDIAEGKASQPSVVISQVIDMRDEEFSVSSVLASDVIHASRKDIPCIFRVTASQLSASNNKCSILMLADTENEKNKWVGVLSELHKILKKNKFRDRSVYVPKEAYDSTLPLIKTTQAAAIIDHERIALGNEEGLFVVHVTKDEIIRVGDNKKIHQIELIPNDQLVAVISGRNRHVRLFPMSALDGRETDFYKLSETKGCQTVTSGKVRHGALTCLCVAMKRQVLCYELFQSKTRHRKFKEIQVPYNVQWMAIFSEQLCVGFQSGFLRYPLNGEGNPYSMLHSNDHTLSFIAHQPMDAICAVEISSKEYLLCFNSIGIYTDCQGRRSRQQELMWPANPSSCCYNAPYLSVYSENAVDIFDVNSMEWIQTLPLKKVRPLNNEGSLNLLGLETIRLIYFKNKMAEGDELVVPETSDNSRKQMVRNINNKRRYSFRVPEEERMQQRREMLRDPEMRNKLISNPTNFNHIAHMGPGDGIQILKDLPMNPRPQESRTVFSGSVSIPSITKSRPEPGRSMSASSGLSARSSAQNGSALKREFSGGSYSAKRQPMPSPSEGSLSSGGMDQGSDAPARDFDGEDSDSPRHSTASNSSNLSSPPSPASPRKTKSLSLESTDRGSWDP
GSK3β(h), sequence (P49841 whole entry): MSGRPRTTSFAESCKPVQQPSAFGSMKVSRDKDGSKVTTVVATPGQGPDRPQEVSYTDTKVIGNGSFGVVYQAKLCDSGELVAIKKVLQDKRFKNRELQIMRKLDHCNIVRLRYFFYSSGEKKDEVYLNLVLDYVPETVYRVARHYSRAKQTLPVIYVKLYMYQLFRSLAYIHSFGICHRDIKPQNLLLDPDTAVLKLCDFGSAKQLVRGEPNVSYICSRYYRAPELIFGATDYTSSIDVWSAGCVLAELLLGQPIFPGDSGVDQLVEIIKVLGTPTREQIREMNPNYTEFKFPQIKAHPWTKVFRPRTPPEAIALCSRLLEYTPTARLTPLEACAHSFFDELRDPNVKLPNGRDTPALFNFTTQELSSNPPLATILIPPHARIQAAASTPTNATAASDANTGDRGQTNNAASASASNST
CaMKIIδ(h), sequence (Q13557 whole entry): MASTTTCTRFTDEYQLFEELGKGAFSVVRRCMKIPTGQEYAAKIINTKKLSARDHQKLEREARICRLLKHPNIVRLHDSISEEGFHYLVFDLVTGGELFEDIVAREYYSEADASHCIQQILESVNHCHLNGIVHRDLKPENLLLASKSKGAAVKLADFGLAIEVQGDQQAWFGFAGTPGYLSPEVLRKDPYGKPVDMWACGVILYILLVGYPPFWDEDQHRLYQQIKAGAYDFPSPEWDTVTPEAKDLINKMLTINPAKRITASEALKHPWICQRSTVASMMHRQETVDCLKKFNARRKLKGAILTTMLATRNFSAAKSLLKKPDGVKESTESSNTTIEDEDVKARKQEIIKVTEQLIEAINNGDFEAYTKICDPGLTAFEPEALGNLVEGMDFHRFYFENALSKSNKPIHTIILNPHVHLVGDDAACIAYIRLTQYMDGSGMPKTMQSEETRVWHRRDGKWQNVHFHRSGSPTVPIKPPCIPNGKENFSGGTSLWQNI
NEK6(h), sequence (Q9HC98 whole entry): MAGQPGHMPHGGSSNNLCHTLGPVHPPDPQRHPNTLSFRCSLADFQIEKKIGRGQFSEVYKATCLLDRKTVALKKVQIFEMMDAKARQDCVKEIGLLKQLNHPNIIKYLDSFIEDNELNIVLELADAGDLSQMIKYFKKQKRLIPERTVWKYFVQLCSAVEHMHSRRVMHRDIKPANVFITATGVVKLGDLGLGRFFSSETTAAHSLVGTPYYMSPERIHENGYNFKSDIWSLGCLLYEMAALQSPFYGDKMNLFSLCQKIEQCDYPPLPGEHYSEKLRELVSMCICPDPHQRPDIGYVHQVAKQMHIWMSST
FGFR1(V561M)(h), sequence (P11362 22-822 V561M): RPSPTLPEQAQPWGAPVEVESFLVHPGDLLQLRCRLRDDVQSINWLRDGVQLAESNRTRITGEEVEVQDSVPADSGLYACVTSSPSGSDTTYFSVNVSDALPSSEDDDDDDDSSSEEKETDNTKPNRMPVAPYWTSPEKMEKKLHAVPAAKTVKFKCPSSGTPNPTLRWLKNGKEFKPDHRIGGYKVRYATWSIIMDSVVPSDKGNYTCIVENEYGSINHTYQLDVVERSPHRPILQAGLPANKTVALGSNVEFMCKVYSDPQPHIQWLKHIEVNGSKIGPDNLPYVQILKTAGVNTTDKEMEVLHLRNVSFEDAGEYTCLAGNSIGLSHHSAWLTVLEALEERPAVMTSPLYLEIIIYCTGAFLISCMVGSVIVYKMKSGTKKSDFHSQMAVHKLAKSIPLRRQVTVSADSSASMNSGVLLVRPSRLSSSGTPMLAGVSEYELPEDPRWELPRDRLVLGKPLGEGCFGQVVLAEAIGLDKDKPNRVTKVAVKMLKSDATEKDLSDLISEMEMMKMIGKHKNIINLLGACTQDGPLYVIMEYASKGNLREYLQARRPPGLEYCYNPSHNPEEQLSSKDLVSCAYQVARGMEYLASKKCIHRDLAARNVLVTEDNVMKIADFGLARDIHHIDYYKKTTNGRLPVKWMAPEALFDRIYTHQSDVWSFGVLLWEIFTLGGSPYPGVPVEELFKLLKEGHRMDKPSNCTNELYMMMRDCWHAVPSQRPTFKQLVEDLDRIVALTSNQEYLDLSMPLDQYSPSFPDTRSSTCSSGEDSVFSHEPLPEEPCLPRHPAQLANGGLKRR

H-YARAAARQARAKALARQLGVAA-OH [MMI-0100]: the activity at 100 µM turned out to be 97% in [1], 108% in experiment [2], 98% in [3] and 85% in experiment [4].

Regarding “HRRIKAWLKKIKALARQLGVAA (Mammalian) [MMI-0500]”, the “% activity” value in experiment [5] amounted to 1%; in experiment [1] (100 μM) it was 0%; in [6], 17%; in experiment [7] it was 238%; in experiment [8], 95%; in [3] (100 μM), 5%. For the same substance, the “% activity” value is 27% in experiment [4] (100 μM); 49% in [9]; 0% in [10]; 23% in experiment [11]; 16% in experiment [12].

In the case of “YARAAARQARAKALNRQLGVA (Mammalian) [MMI-0200]”, the “% activity” value came to 2% in experiment [5]; 72% in experiment [2] (100 μM); 99% in experiment [6]; 132% in experiment [7]; 90% in experiment [8]; 98% in [9]. Moreover, the results for the “% activity” value in experiment [10], in [11] and in experiment [12] were 18%, 98% and 98%, respectively.
